The values below are quoted from earlier work in paper PMC5529358.

Series [1] addresses insulin receptor isoform A isoform A (Homo sapiens) (UniProt P06213).
Series [2] has as its target insulin receptor isoform B isoform B (Homo sapiens) (UniProt P06213).

Sequence of insulin (P01308 90-110): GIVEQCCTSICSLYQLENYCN

A word on the Kd: it is the concentration at which binding is half-saturated. Consider IGF-1 (from UniProt P05019), for which, in series [1], the dissociation constant Kd is 120 nM.
Regarding insulin (from UniProt P01308), the dissociation constant Kd in series [2] is 1.4 nM.
